Experimental data from paper PMC9313494 (2022).

Molecular target: Lys-Nle peptide (norleucine (Nle) residues (Nle12 named); D-residues (D-Lys1, D-Lys8 named); terminal thiol group)
Assay: SPR

B1: bone morphogenetic protein-2 (BMP-2) (ligand)
chain: QAKHKQRKRLKSSCKRHPLYVDFSDVGWNDWIVAPPGYHAFYCHGECPFPLADHLNSTNHAIVQTLVNSVNSKIPKACCVPTELSAISMLYLDENEKVVLKNYQDMVVEGCGCR
**Q.** With B1 as the binder, how does the koff read?
**A.** The koff was 0.00973 s⁻¹.
